Molecular target: T1, FHH-tagged Siah1, recombinant purified (UniProt Q8IUQ4 1-282, labeled with RED-tris-NTA 2nd generation dye (Monolith His-Tag labeling kit))
T1 sequence (looked up): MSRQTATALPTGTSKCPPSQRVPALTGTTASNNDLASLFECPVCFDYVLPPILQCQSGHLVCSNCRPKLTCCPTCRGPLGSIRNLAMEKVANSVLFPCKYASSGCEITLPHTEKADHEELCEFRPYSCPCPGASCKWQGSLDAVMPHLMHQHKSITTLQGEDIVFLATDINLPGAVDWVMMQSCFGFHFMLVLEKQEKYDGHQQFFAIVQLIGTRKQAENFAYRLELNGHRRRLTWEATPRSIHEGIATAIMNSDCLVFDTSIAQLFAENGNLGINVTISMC
Assay: MST

B1: n-terminus FLAG-tagged CacyBP, recombinant purified (natural protein, UniProt Q9HB71 1-228, looked up)
chain: MASEELQKDLEEVKVLLEKATRKRVRDALTAEKSKIETEIKNKMQQKSQKKAELLDNEKPAAVVAPITTGYTVKISNYGWDQSDKFVKIYITLTGVHQVPTENVQVHFTERSFDLLVKNLNGKSYSMIVNNLLKPISVEGSSKKVKTDTVLILCRKKVENTRWDYLTQVEKECKEKEKPSYDTETDPSEGLMNVLKKIYEDGDDDMKRTINKAWVESREKQAKGDTEF
Kd: 9.8 µM
